Here are results for three molecules from patent US20060057701A1 (RINAT NEUROSCIENCE, published 2006).

Ends that are not written are not given here.

Assay [1] deals with T1, biotinylated Aβ 20-34 peptide with C-terminal glycine (human, also: biotinylated, position not given here).
T1 peptide: FAEDVGSNKGAIIGLG
The assay is described as follows: ELISA: biotinylated peptide on streptavidin plate, goat anti-human kappa HRP, absorbance at 450 nm. For orientation: In an ELISA, binding on a coated surface is turned into a signal by an enzyme label.

Assay [2] deals with T2, biotinylated Aβ 25-39 peptide with C-terminal glycine (human, also: biotinylated, position not given here).
T2 peptide: GSNKGAIIGLMVGGVG
The assay is described as above.

For assay [3], the target named is T3, biotinylated Aβ 22-36 peptide with C-terminal glycine (human, also: biotinylated, position not given here).
T3 peptide: EDVGSNKGAIIGLMVG
The assay is described as above.

Assay [4] deals with T4, biotinylated Aβ 23-37 peptide with C-terminal glycine (human, also: biotinylated, position not given here).
T4 peptide: DVGSNKGAIIGLMVGG
Described as above.

Assay [5] concerns the target T5, biotinylated Aβ 21-35 peptide with C-terminal glycine (human, also: biotinylated, position not given here).
T5 peptide: AEDVGSNKGAIIGLMG
The assay is described as above.

For assay [6], the target named is T6, biotinylated Aβ 24-38 peptide with C-terminal glycine (human, also: biotinylated, position not given here).
T6 peptide: VGSNKGAIIGLMVGGG
Described as above.

The target of another assay is T7, Aβ1-43 peptide (human).
T7 construct: also called 1-43 (WT)
T7 sequence (peptide, as listed by the source): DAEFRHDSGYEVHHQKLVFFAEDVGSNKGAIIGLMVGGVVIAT
The assay is described as follows: SPR competition: soluble peptide against immobilized Aβ1-40, Fab at 50 nM. The protocol:
(§1) To determine the epitope on Aβ polypeptide that is recognized by antibody 9TL, Surface Plasmon Resonance (SPR, Biacore 3000) binding analysis was used. Aβ₁₋₄₀ polypeptide coupled to biotin (Global Peptide Services, CO) was immobilized on a streptavidin-coated chip (SA chip). The binding of Aβ antibodies Fab fragments (at 50 nM) to the immobilized Aβ₁₋₄₀ in the absence or presence of different soluble fragments of the Aβ peptide (at 10 μM, from American Peptide Company Inc., CA). Amino acid sequences of Aβ₁₋₄₀, Aβ₁₋₄₂, and Aβ₁₋₄₃ are shown in below in Table 4. The Aβ peptides which displaced binding of antibody 9TL Fab fragment to Aβ₁₋₄₀ were Aβ₂₈₋₄₀, Aβ₁₋₄₀, Aβ₃₃₋₄₀, and Aβ₁₇₋₄₀, respectively (FIG. 2). Thus, antibody 9TL binds to a C-terminal peptide (33-40) of Aβ₁₋₄₀.

Another assay concerns the target T8, Aβ28-42 peptide (human).
T8 peptide: KGAIIGLMVGGVVIA
The assay is described as above. On the procedure:
as §1

In a further assay the target is T9, human C1q (human, UniProt P02745 23-245; P02746 28-253; P02747 29-245).
T9 construct: also called hC1q; human complement
T9 sequence (P02745 23-245 limits assumed, chain 1 of 3): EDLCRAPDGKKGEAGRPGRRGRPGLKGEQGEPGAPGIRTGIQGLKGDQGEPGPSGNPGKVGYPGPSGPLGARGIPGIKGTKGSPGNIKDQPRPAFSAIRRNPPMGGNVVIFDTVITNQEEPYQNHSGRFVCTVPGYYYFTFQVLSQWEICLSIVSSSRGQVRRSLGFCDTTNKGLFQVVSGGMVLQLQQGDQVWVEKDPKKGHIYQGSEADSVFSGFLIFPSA
T9 sequence (P02746 28-253 limits assumed, chain 2 of 3): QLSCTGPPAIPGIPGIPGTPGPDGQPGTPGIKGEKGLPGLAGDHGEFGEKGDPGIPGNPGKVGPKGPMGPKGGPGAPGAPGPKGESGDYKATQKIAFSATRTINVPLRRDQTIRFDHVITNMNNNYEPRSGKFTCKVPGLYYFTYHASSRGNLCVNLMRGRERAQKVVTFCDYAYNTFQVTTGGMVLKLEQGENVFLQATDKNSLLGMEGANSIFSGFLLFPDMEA
T9 sequence (P02747 29-245 limits assumed, chain 3 of 3): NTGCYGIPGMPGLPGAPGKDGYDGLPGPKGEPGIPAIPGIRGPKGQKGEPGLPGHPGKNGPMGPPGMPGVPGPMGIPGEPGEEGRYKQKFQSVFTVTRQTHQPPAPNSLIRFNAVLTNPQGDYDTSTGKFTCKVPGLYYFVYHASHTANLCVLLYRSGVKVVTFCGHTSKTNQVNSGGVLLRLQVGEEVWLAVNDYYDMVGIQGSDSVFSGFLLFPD
The experiment in a line: SPR, C1q on CM5 chip, antibody flowed. The protocol: (§2) Binding affinity of the antibody Fc regions to Fcγ receptors or complement were measured using BIAcore as described above. Briefly, purified human or murine Fcγ receptors (from R&D Systems) and human C1q (from Quidel) were immobilized on BIAcore CM5 chip by amine chemistry. Serial dilutions of monoclonal antibodies (ranging from 2 nM to the maximum concentration as indicated in Tables 16 and 17) were injected. HBS-EP (0.01M HEPES, pH 7.4, 0.15 M NaCl, 3 mM EDTA, 0.005% Surfactant P20) as running and sample buffer. Binding data were analyzed using 1:1 langmuir interaction model for high affinity interactions, or steady state affinity model for low affinity interactions.

In a further assay the target is T10, human FcγRIIb/c (human, UniProt P31994 46-217, limits assumed).
T10 construct: Bought
T10 sequence (looked up): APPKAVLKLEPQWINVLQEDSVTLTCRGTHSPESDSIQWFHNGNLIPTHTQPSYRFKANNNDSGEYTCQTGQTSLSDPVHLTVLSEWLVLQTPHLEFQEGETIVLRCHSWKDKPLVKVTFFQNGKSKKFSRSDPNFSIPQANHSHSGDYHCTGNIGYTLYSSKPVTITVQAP
The experiment in a line: SPR, receptor on CM5 chip, antibody flowed. On the procedure:
as §2
In general terms: In SPR one partner is held on a chip, and binding of the other changes the refractive index at the surface.

Another assay has as its target T11, murine FcγRIII (murine, UniProt P08508 31-215, limits assumed).
T11 construct: Bought; also called mFcγRIII
T11 sequence (looked up): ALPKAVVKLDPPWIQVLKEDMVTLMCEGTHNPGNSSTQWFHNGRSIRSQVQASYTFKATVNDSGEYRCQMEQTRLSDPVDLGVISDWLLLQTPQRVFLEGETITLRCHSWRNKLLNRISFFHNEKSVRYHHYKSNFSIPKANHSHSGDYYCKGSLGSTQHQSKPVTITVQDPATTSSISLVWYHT
The assay is described as follows: SPR, receptor on CM5 chip, antibody flowed. The protocol:
as §2

The target in another assay is T12, murine FcγRI (murine, UniProt P26151 25-297, limits assumed).
T12 construct: Bought; also called mFcγRI
T12 sequence (looked up): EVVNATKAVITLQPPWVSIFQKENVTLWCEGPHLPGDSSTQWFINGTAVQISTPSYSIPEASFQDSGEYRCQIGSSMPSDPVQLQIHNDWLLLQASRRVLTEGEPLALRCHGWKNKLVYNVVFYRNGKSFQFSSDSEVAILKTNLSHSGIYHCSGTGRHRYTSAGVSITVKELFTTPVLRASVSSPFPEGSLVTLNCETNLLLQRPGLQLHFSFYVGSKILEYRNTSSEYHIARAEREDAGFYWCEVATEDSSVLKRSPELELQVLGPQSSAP
The assay is described as follows: SPR, receptor on CM5 chip, antibody flowed. The protocol: as §2

In another assay the target is T13, human FcγRI (human, UniProt P12314 16-288, limits assumed).
T13 construct: Bought
T13 sequence (P12314 16-288 limits assumed): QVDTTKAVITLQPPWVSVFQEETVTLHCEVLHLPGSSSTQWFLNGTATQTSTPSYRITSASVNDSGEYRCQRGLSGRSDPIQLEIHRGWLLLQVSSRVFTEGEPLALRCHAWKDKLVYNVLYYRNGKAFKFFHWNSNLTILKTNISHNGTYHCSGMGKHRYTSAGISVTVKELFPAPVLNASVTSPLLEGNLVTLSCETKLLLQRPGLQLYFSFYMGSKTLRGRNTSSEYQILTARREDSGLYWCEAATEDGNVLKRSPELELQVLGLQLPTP
The assay is described as follows: SPR, receptor on CM5 chip, antibody flowed. The protocol:
as §2

The next assay deals with T14, murine FcγRIIb (murine, UniProt P08101 40-217, limits assumed).
T14 construct: Bought; also called mFcγRIIb
T14 sequence (looked up): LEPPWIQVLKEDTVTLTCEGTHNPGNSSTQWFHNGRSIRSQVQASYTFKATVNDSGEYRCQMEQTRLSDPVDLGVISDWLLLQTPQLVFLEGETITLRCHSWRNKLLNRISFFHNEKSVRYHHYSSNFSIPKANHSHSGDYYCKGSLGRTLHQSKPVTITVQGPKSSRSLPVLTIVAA
The experiment in a line: SPR, receptor on CM5 chip, antibody flowed. The protocol:
as §2

B1: antibody 6G (antibody, human IgG2, kappa, V domains shown)
VH: QVQLVQSGAEVKKPGASVKVSCKASGYTFTTYAIHWVRQAPGQGLEWMGFTSPYSGVSNYNQKFKGRVTMTRDTSTSTVYMELSSLRSEDTAVYYCARFDNYDRGYVRDYWGQGTLVTVSS
VL: DIVMTQSPDSLAVSLGERATINCRASESVDNDRISFLNWYQQKPGQPPKLLIYAATKQGTGVPDRFSGSGSGTDFTLTISSLQAEDVAVYYCQQSKEFPWSFGGGTKVEIKR
notes: Full antibody with modified human IgG2a (A330P331 to S330S331) and human kappa
Regarding B1, the “absorbance at 450 nm” value in [1] was above 3; in assay [2], 1.5; in [3] it was above 3; in assay [4], 2.3; in [5] it was above 3; in [6], 2.1.

B2: antibody 9TL Fab fragment (Fab, V domains shown)
VH: QVQLVQSGAEVKKPGASVKVSCKASGYYTEAYYIHWVRQAPGQGLEWMGRIDPATGNTKYAPRLQDRVTMTRDTSTSTVYMELSSLRSEDTAVYYCASLYSLPVYWGQGTTVTVSS
VL: DVVMTQSPLSLPVTLGQPASISCKSSQSLLYSDAKTYLNWFQQRPGQSPRRLIYQISRLDPGVPDRFSGSGSGTDFTLKISRVEAEDVGVYYCLQGTHYPVLFGQGTRLEIKR
notes: Fab expressed in E. coli
Regarding B2, the binding result with Aβ1-43 peptide and in the assay with Aβ28-42 peptide was “no binding (tested: 10 µM peptide)” in each case.

B3: antibody 9TL (antibody, human IgG2, kappa)
heavy: QVQLVQSGAEVKKPGASVKVSCKASGYYTEAYYIHWVRQAPGQGLEWMGRIDPATGNTKYAPRLQDRVTMTRDTSTSTVYMELSSLRSEDTAVYYCASLYSLPVYWGQGTTVTVSSASTKGPSVFPLAPCSRSTSESTAALGCLVKDYFPEPVTVSWNSGALTSGVHTFPAVLQSSGLYSLSSVVTVPSSNFGTQTYTCNVDHKPSNTKVDKTVERKCCVECPPCPAPPVAGPSVFLFPPKPKDTLMISRTPEVTCVVVDVSHEDPEVQFNWYVDGVEVHNAKTKPREEQFNSTFRVVSVLTVVHQDWLNGKEYKCKVSNKGLPSSIEKTISKTKGQPREPQVYTLPPSREEMTKNQVSLTCLVKGFYPSDIAVEWESNGQPENNYKTTPPMLDSDGSFFLYSKLTVDKSRWQQGNVFSCSVMHEALHNHYTQKSLSLSPGK
light: DVVMTQSPLSLPVTLGQPASISCKSSQSLLYSDAKTYLNWFQQRPGQSPRRLIYQISRLDPGVPDRFSGSGSGTDFTLKISRVEAEDVGVYYCLQGTHYPVLFGQGTRLEIKRTVAAPSVFIFPPSDEQLKSGTASVVCLLNNFYPREAKVQWKVDNALQSGNSQESVTEQDSKDSTYSLSSTLTLSKADYEKHKVYACEVTHQGLSSPVTKSFNRGEC
notes: Full antibody; human IgG2a constant region with A330P331 to S330S331, human kappa; transient expression in HEK 293 cells; also called 9TL mAb; 9TL(hIgG2Δa); copies: 2 + 2
Usually Kd stands for a measure of binding affinity in units of concentration. High values mean weaker binding, low ones tighter binding. B3: the binding result is recorded as “no binding (tested: 30,000 nM)” with human C1q; “no binding (tested: 30,000 nM)” with murine FcγRIII; “no binding (tested: 30,000 nM)” with murine FcγRI; “no binding (tested: 30 µM)” in the assay with human FcγRI; “no binding (tested: 30,000 nM)” with murine FcγRIIb. In the assay with human FcγRIIb/c, this molecule gave a Kd of 61 µM.
